± gives the standard deviation of the averaged measurements.
System: ATP
Assay: switch fluorescence ratio, 500 uM ATP over buffer (Cy3 cluster intensity, sum of 5 cycles each) (fold (ratio)); higher = stronger signal-on switching upon ATP binding; sequences stand for … in TCGTCGGCAGCGTCAGATGTGTATAAGAGACAGTTTTTTTTTTTTTTTTTTTTTTTTT…TC
Conditions: aptamer strand: ATP DNA aptamer (quencher-CACCTGGGGGAGTATTGCGGAGGAAGG + anchor), 100 nM annealed; ATP concentration: 500 uM
Outline: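 Clusters with intensities outside 100-1000 RFU were excluded. The remaining Cy3-labelled switching-strand clusters on a modified Illumina MiSeq flow-cell had been annealed to 100 nM quencher-labelled ATP aptamer and imaged in selection buffer, then after 15 min with 500 uM ATP at 22 °C, for five cycles separated by NaOH stripping and re-annealing. The fluorescence ratio, averaged per switch-domain sequence, is each cluster's summed target-cycle Cy3 intensity over its summed buffer-cycle Cy3 intensity.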
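Further: ATP exposure 15 min at 22 °C before imaging.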

| Sequence | switch fluorescence ratio |
| --- | --- |
| ACGCCTACGA | 1.15 ± 0.09 |
| TCAGCAAATT | 1.09 ± 0.041 |
| AAATCCGAAT | 1.01 ± 0.069 |
| TTTGTGACTA | 1.01 ± 0.049 |
| GCTTCCCAGC | 1.19 ± 0.032 |
| ATGCTTAGTC | 0.964 ± 0.018 |
| CTCGGGGGGC | 0.992 ± 0.063 |
| GAAAATTATA | 1.02 ± 0.035 |
| CGGGGGCGTT | 1 ± 0.018 |
| AGTATCGAGC | 1.02 ± 0.049 |
| TGCGCCGTTT | 1.01 ± 0.017 |
| GCAGTGGGGA | 1 ± 0.031 |
| TACACGCGGG | 1.01 ± 0.048 |
| CGATTCGGTG | 0.9698 ± 0.0031 |
| ATTGCATAGG | 0.9951 ± 0.0021 |
| GTAAAAAAAG | 1.09 ± 0.086 |
| AATTGAAGGG | 0.996 ± 0.015 |
| GGTTTGCGCT | 1.004 ± 0.0076 |
| GGTGGGTTGT | 1.03 ± 0.076 |
| AGAGGGGTTT | 0.98 ± 0.03 |
| ATGTTGGTTG | 1.03 ± 0.04 |
| TCAAGGGGTG | 1.034 ± 0.0082 |
| CGCTGGATAG | 1.08 ± 0.051 |

| Sequence | switch fluorescence ratio |
| --- | --- |
| GCTTGGCAGT | 1.03 ± 0.018 |
| TGTATTAAAG | 0.983 ± 0.029 |
| TCGGGTATAT | 1 ± 0.044 |
| TTTAGGGGCG | 1.03 ± 0.1 |
| GGGGAAAGTT | 0.988 ± 0.043 |
| ATGAATTCTG | 1.059 ± 0.0049 |
| GGTGATAAAT | 0.991 ± 0.025 |
| TGGTATGCGG | 1.02 ± 0.013 |
| AGTGGGTTCA | 0.9842 ± 0.0034 |
| GGATTACCCA | 1.04 ± 0.021 |
| GCTGAGGGTG | 1.01 ± 0.028 |
| GGGTGCCGGG | 0.911 ± 0.12 |
| TTTGGGGTTA | 0.996 ± 0.034 |
| TACTTGCTTC | 1.02 ± 0.038 |
| GTTTTGGGGA | 0.996 ± 0.011 |
| ATTTAGAATG | 1.02 ± 0.011 |
| GATTAAAGGG | 1.001 ± 0.0085 |
| GCGTGGGGGC | 1.02 ± 0.019 |
| TGATGGAGGC | 1.01 ± 0.013 |
| ATACCTTCGT | 1.692 ± 0.012 |
| GATTGGTAAT | 0.996 ± 0.028 |
| TCAGGGACAA | 1.01 ± 0.013 |
| TTTAAGTGAT | 1.01 ± 0.057 |

| Sequence | switch fluorescence ratio |
| --- | --- |
| CCGAAGGGGA | 1.65 ± 0.88 |
| GGCTGGGATG | 1.02 ± 0.095 |
| TAGCGCGGGA | 1 ± 0.016 |
| ACAGACTCGC | 1.01 ± 0.019 |
| AGTCTTAATA | 0.986 ± 0.034 |
| TAAGAGCCGT | 1.02 ± 0.012 |
| GCGACGAAGG | 1.02 ± 0.012 |
| ATAAGGGATG | 0.998 ± 0.017 |
| CAGGGAGGGT | 0.983 ± 0.014 |
| GGGAGCGCTT | 1.03 ± 0.012 |
| TTTTCAATCT | 0.9933 ± 0.0073 |
| CTTACAAGC | 1.04 ± 0.026 |
| GTGAGATGTT | 1 ± 0.016 |
| GCGGGCCTTG | 0.984 ± 0.068 |
| TAAAGGAAAT | 1.09 ± 0.11 |
| AGGGCACGGG | 0.982 ± 0.023 |
| TATATTGTAA | 1.01 ± 0.013 |
| TCAAATATTT | 0.979 ± 0.0025 |
| TGAATGAGAT | 0.967 ± 0.014 |
| CATTAGTAGC | 1.02 ± 0.05 |
| ACTGTGTACA | 0.9824 ± 0.0024 |
| TCGACGGAGT | 1.114 ± 0.00049 |
| GTTTAGTAAG | 1 ± 0.013 |

| Sequence | switch fluorescence ratio |
| --- | --- |
| GATGGGGCTC | 0.979 ± 0.024 |
| CGTTTGATGC | 1.018 ± 0.0033 |
| TTGGGGTCCT | 0.984 ± 0.023 |
| CCCCAGGGGG | 3.38 ± 2.3 |
| GGGGAAGTAT | 0.985 ± 0.014 |
| CGGTGGGAGA | 1.023 ± 0.0078 |
| AAACATTATT | 1 ± 0.063 |
| CTCAGTGGTA | 1.014 ± 0.0043 |
| CGGCGGCACG | 0.998 ± 0.086 |
| TTTTGTTTTT | 1.08 ± 0.44 |
| GAAGGAGGGA | 0.987 ± 0.018 |
| TGATCTGGGG | 1.01 ± 0.033 |
| AGTTTGCGGG | 1.006 ± 0.0094 |
| ATCGGTCCTT | 1.03 ± 0.027 |
| GACTTTGGGA | 0.999 ± 0.023 |
| TCAGTAGGGG | 0.978 ± 0.068 |
| TTGCCTCGGG | 1.04 ± 0.037 |
| GCTCTCGGTA | 1.03 ± 0.039 |
| GAGGTTGTTT | 0.977 ± 0.02 |
| AAGGTCGCGG | 1 ± 0.017 |
| GGTTTGGTAA | 1.014 ± 0.0099 |
| GGGCGATGCA | 1.02 ± 0.028 |
| TAGGAGTTAG | 1 ± 0.047 |

| Sequence | switch fluorescence ratio |
| --- | --- |
| GCGTTGTGGC | 1.01 ± 0.05 |
| ACGGGCATTC | 1.76 ± 0.42 |
| CAATTGGCGT | 0.967 ± 0.021 |
| ACGGTCCAAG | 1.02 ± 0.015 |
| TCCTTGATAT | 0.995 ± 0.04 |
| TGGGTGTCCA | 1 ± 0.021 |
| CGGCAGTAAT | 1.471 ± 0.003 |
| GCAAAAATGG | 1.02 ± 0.038 |
| AATGATAAGC | 1.04 ± 0.028 |
| AACGGGGGCA | 0.925 ± 0.025 |
| ATGGGGCGGC | 0.983 ± 0.026 |
| GCCTAATGTT | 0.957 ± 0.022 |
| TCGTGCGGGG | 0.969 ± 0.016 |
| TTCATTGGGG | 0.99 ± 0.018 |
| CGAGGGGGA | 1.0066 ± 0.00091 |
| AGGAAGTCTT | 0.941 ± 0.021 |
| TGAGGGATGT | 1.04 ± 0.059 |
| ATCGGTTACC | 1.011 ± 0.0045 |
| AGATTGTCTC | 0.9573 ± 0.0063 |
| CCCCAATTT | 0.999 ± 0.025 |
| ATATATGTCG | 1.07 ± 0.049 |
| CTGTGAGGCT | 1 ± 0.042 |
| CTATGATTCG | 1.01 ± 0.023 |

| Sequence | switch fluorescence ratio |
| --- | --- |
| TATGAATTTG | 1 ± 0.028 |
| GGGTTGAGGT | 0.9843 ± 0.0092 |
| AATCTGTGTG | 0.963 ± 0.042 |
| TTGGTGTTGT | 0.989 ± 0.027 |
| GTTTTTGATA | 0.998 ± 0.02 |
| GGGCCAGGGA | 1 ± 0.024 |
| GGGGGCGGCT | 1.03 ± 0.056 |
| GAGGGGTGTC | 0.978 ± 0.03 |
| TTAACGCCTC | 1.0315 ± 0.001 |
| ATCGTATTGT | 0.993 ± 0.03 |
| GGGGTAGCCT | 1 ± 0.04 |
| AGTGGCGTTC | 1.01 ± 0.073 |
| CTTGGGTTGC | 0.9961 ± 0.0092 |
| TCTTAGGTGG | 1.05 ± 0.016 |
| ACTGGAAGTG | 1.03 ± 0.0039 |
| CAGAATTGTG | 1.02 ± 0.012 |
| GTTGGTAAGA | 0.9979 ± 0.0036 |
| GTGGTACAGG | 1.02 ± 0.068 |
| TATCTCAGAA | 0.99 ± 0.014 |
| GCGCATTTAG | 1.15 ± 0.066 |
| ATTTATAGGG | 0.982 ± 0.014 |
| CGACTGGGGG | 0.957 ± 0.026 |
| CAAATGCCCG | 0.934 ± 0.055 |

| Sequence | switch fluorescence ratio |
| --- | --- |
| TAATAGTTTG | 1.028 ± 0.0095 |
| AATAATGTGC | 0.987 ± 0.074 |
| GGGGGATACG | 0.997 ± 0.033 |
| GACTTTGTGC | 0.9772 ± 0.0022 |
| GGGTCGGGGG | 0.994 ± 0.04 |
| ACGTTGCTTA | 1.007 ± 0.0052 |
| TCAGGGTGGG | 1 ± 0.029 |
| CCAGGTTTTT | 1.04 ± 0.017 |
| GGGACTTTCT | 1.01 ± 0.0092 |
| ACGAGTTCCT | 0.989 ± 0.056 |
| TAACGGTTTT | 1.01 ± 0.033 |
| GGGGGCTTAT | 1.01 ± 0.017 |
| TTTTAGTTCG | 1 ± 0.028 |
| AATCATGTAG | 1.01 ± 0.011 |
| TGCAAGAGTG | 1.03 ± 0.011 |
| ACGGGCTAGG | 1.01 ± 0.027 |
| GGAGGGAGCG | 1 ± 0.03 |
| GTGATTTTGG | 0.9882 ± 0.0042 |
| TAGGATGTAT | 0.9864 ± 0.0088 |
